This is an account of results in the DeepSol protein solubility set.

This data set is described as follows: soluble on expression in E. coli; label from the status in PepcDB or PDB records.
“MRAFYSTTEEISALFAKQQEQLKTMQRTLEDEDNCDNTSLDIDLNPINRSPNRANTQGDKRATSHLNFAARASSSTSGQRSTRNEVVDTSCEDADATQKHDCEIMSQEGQNTQEAEYPSSDKVAKGGFGSDIEGIGTAPTSGTDPVGTEQVNETQSPGNDYERNDHLRKSIILAGDTMQIDCETQVHESVQIEGAVLLLRNPNDRRDTQDIEGVGTIGTSDLLASEVAGSWANSTNPSVHGENETERSREDEESQTQKIKEVTIVQDSAGQIGESQTKPTSPGVLVTNKDDAERGVINEPVGITDQGKIKHGTRSDSETESCSDSDDDHEKEKHNPVSDSDTEGSDMNDDKGSLSSDPDTERSHEVDGDQKKQVDTMDEDDKAT”: the “soluble on expression in E. coli” value is reported as “soluble”.

For the sequence “MRANLGVPSTIAQSRWAESATSFPTATVAAAGGKDIEIERDVAHNQPGGIFPNVIFLESLDFSACFVDAHQVFVSDGSVMFRRWDRQKKTGRKK”, the “soluble on expression in E. coli” value is listed as “not soluble”.

As for “MRAVVLVPFLKQQRENRDAASAPAAPGRSVEAKLEEAKGLALAIDLEVTQGLVVPVNQPRPATLFGTGKIEEIGHLLDETNSGLVIVDHPLTPVQQRNLEKQWNAKVIDRTGLILEIFGRRASTKEGTLQVDLAHLNYQKGRLVRSWTHLERQRGGAGFMGGPGETQIEADRRLLQDRIVKLEKELEQVVRTRQLHRAKRRKVPHPIVALVGYTNAGKSTLFNRITGAGVLAEDMLFATLDPTLRRMKLPHGRTVILSDTVGFISDLPTHLVAAFRATLEEVLEA”, the “soluble on expression in E. coli” value is on record as “not soluble”.

“MRDAALRYPNILFDLDGTLTDPREGITRSVQFALARLGIDEPDLARLEHFIGPPLLQCFMQTYGFDEARAWEAVNHYRERFRVTGLYENRVFDGIPELLEALVGRGHTLYVATSKPGVFAREIARHFAFDRHFKAIYGSELDGTRTHKEELIRHLLDSEGLAAEHCLMIGDRMHDLLGASRNGVACIGVGYGFGSEDELRAHQPTHYCADLAALRQVLESH”: the “soluble on expression in E. coli” value is given as “not soluble”.

Take “MRDALHVTADDADATDDAIPDSRETGVTGVVLAGGLSTRLGHDKAVIRLHGEQGPDLLVRTAALLEPLVDEVWISCRPGRCVTGPYLRIYDEVQGLGPFGGVMTALRAAQGPVLVLSCDLPFMERTLLERLLERRGARHPEALMTTFRQEETGFIESLVAVYEYACLPFFEDALTDGVHKLSRVIPAERREDIVYTQNEALPFFNVNYPADLEMARRIIGALLEHHHHHH”: the “soluble on expression in E. coli” value is listed as “not soluble”.

For the sequence “MRDGEGIWGRGRTGGHAHPKEAMHTTFFILGGTMLIGVISDTHLYDRAFELPKAVFDEFSNVDLIIHCGDVTDKEILDSLKDLAKVVAVKGNMDYLNLPRKEILEINDIKIGVIHGDVVYPRGDRLKLRLLGKEMGVDVLISGHTHTPFIDDCRDILLLNPGSPTVPRCPLKSIMKLSVEDKLEAKLIPIEE”, the “soluble on expression in E. coli” value was “soluble”.

On to “MRDNASLAHTQWNCKYHIVFAPKYRRQVIYGKIKKDIGQILRKLCEMKGVEIIEASLCPDHIHMLVSIPPKISVSSFMGYLKGKSSLMIFNRHANLKYKYGNRHFWCRGYYVDTVGRNRKAIEQYIRRQLQEDIASDQISLNEYIDPFTGERVNKSKK”, for which the “soluble on expression in E. coli” value was “not soluble”.

For the sequence “MRDPFMEALGLKVLHLAPGEAVVAGEVRADHLNLHGTAHGGFLYALADSAFALASNTRGPAVALSCRMDYFRPLGAGARVEARAVEVNLSRRTATYRVEVVSEGKLVALFTGTVFRLGGDGDDVPAGTGNLAPREA”, the “soluble on expression in E. coli” value is reported as “soluble”.

As for “MRDTIPVTILSGSLGAGKTTLLNHLLTEAGDRDIAVLVNDMGTVNVDAELIAEGSELDVDDGVAELSNGCICCELQDDLETAVVRLADDRDFDALVVESSGISEPAPVARLFTTESRVAALYRVDTLVTVLDTRLFLDSFAGETPERRGSGEASADGDGDDTEADGADRPLSDLMVEQVELSNLVVLNKTDLCTDEEMDEAEELVRALQPDAETIRTTFSQVDPDRLFDRALFDQTEISDLPGWKRALAESGHGHGEGSHDHGGDSHETDAHEGDTGHGHDDHHHPEEVYGVTSFTYRRRRPFHPDRLAEVLQDLPSGVVRSKGTVWLAGSERRVVIGQAGPSIRAEAQGPWIASLPEVEQDMYRSNRPELDWHDEHGDRRTELVFIGTDYDESALRTALDDALVTDEEWTESESLTGPFPAEQGEEAVIRSP”, the “soluble on expression in E. coli” value was “not soluble”.

On to MREKWRKKRMRRLKRKRRAAKK, for which the “soluble on expression in E. coli” value is listed as “not soluble”.

Regarding “MREVISIHVGQAGVQIGNACWELYCLEHGILPDGTSMEPDGNSGSLGTFFSDTGYGRHVPRSIFVDLEPTVVDEIRTGAYKKLFHPEQMLTGKEDAANNYARGHYTVGKEIIDTTLDRIRRLANNCEGLQGFFVFHSFGGGTGSGFTSMLMERLSAEYGKKSKLEFSIYPAPQISTSVVEPYNSILTTHTTLEHSDCSFMVDNEAIYDICRRNLRVSRPTYNNLNRIISQVVSSITASLRFDGALNVDLNEFQTNLVPYPRIHFPLVAYNPLISSAHHEFLSVDEITKSCFEASNQMVKCDPKHGKYMAVCLLYRGDVVPKDVSAAIKSIKTQRSVQFVDWCPTGFKVGLNYQPPTVIPGGDMAKVPRAVCMLSNTTAIAEAWQRLDYKFDLMYAKRAFVHWYVGEGMEEGEFSEAREDLAALEKDYEEVGADSDANDNGDDEY”, the “soluble on expression in E. coli” value is “not soluble”.

In the case of “MRFIHTSDWHLGKSLEGHSRIEEQAKFCEEFIKIVESNEIDMVIIAGDVYDTSNPPAQAEKLFYQTVSRLANNGQRCVLIISGNHDNPERLSAITPLAHEQGILIYGYPLSATIEAKYKGFEITYATQGCTKLNINGENIVVATLPYPSEKRLNEVFSSEDEFEKQKNYSEKVGDIFRSLEENFRSDTINIAVSHIFVIGGESTESERPIQLGGSFLVERKDLPEKAQYTALGHLHKQQKASERLNAYYSGSPLQYSKDERAYTKGAYIVDIKAGEKPIIEDVYFNNYKPIEVFKCNGIEEALDICEQNQDREIWSYFEINTDEIISQNEIKKMKELLKDIIEIKPIITSCYEQESVDIKEKSMAELFREFYSFSKGVEPKGELMDLFLDIISEEGESADETN”, the “soluble on expression in E. coli” value is “not soluble”.

As for “MRFLFSLIGLVYSSLIKLAVPFNPKARMMVRGRWKVWRQLREGIVPGGRYIWFHAASLGEFEQGRPMIERIRSEYPDYRIVLTFFSPSGYEVRKNYEGADVIVYLPADRLPRVRKFLDLVKPEMAIFIKYDFWPCFLTELERRQIPTYLVSSIFRPSQLFFRWYGGAYKRLLHCFTHIFVQDKASRLLLEKHGIDHVSVAGDTRFDRVISVYEARKSLPLIERFAASVPEDGLVIVGGSSWPPDEEILVRYFNRNPKIKLILAPHEIDKEHLLQIISHIRRPFIRLSEATESDIARQDCLIVDSFGLLSSIYRYGQVAFIGGGFGKGIHNTPEAAVYGIPVIFGPRYEKFKEARELIDVGGGFSVSSAEEFGNLIKRIQTDKAYRDAASRAAADYIRSNAGATGYIVHRIMKLEHHHHHH”, the “soluble on expression in E. coli” value is on record as “soluble”.

In the case of “MRFQYQALLNEHQSQLDRFSSHIVATLDKYAHIPHLISKDKELVDALLSAQNSAQIDITNRYLEQVNEVIQAADTYLIDRFGNTIASSNWNLDRSFIGRNFAWRPYFYLSIAGQKSQYFALGSTSGQRGYYYAYPVIYAAEILGVIVVKMDLSAIEQGWQNKSSYFVATDDHQVVFMSSQPAWLFHSVADLSPAQLNDIRQSQQYLDSPIPSLGWQGDLQAEQSEWRKPEKHWLQDDYIVSSRPLPELALTIRVLSPKIE”, the “soluble on expression in E. coli” value is listed as “soluble”.

As for “MRFVFDIDGTLCFDGRLIDQTIIDTLLQLQHDGHELIFASARPIRDLLPVLPSVFHQHTLIGANGAMISQQSKISVIKPIHTDTYHHILKIIQKYELDYIIDDDWNYAAQLDAENAIFERLDPHKLASCIDVANIDTPIKIILLNIDPAQITTILDELNKYHQELEMIHHSNEYNIDITAQNINKYTALQYIFDADVKYIAFGNDHNDIFMLQHASSGYIIGPSEAYTHAILKLDKIKHINNNTQAICKVLKSYK”, the “soluble on expression in E. coli” value is recorded as “not soluble”.

Consider “MRGCNKETGEFLGPSRSQQRRTALEVLVLSEKLAALTPAQLAKLPIPERLLPHITETKRITSHIARKRQLAFLAKQMRREDDTTLEAIREKLNASGIQAQREVATLHRTEQWRKRLLEEGDSALTELLNQYPQADCGKLRQLLRNSKTEQARNKAPQAFRELYQVLHGLIITQ”, for which the “soluble on expression in E. coli” value is listed as “not soluble”.

On to “MRGLTPEQTLMLADAFCAQTSGDLSVRDYAALNAIAAVTTAHIHAVVVFPTAHHMVKYVRSLVIQLSPLDDRNTDFADFLVAVLRDLNGL”, for which the “soluble on expression in E. coli” value is reported as “not soluble”.

Turning to “MRGSHHHHHHGMASHMATEQTAITRATFDEVILPVYAPADFIPVKGKGSRVWDQQGKEYIDFAGGIAVTALGHCHPALVEALKSQGETLWHTSNVFTNEPALRLGRKLIDATFAERVLFMNSGTEANETAFKLARHYACVRHSPFKTKIIAFHNAFHGRSLFTVSVGGQPKYSDGFGPKPADIIHVPFNDLHAVKAVMDDHTCAVVVEPIQGEGGVQAATPEFLKGLRDLCDEHQALLVFDEVQCGMGRTGDLFAYMHYGVTPDILTSAKALGGGFPVSAMLTTQEIASAFHVGSHGSTYGGNPLACAVAGAAFDIINTPEVLQGIHTKRQQFVQHLQAIDEQFDIFSDIRGMGLLIGAELKPKYKGRARDFLYAGAEAGVMVLNAGADVMRFAPSLVVEEADIHEGMQRFAQAVGKVVA”, the “soluble on expression in E. coli” value is “soluble”.

In the case of “MRGSHHHHHHGSAERMLATIMFTDIVGSTQHAAALGDDRWRDLLDNHDTIVCHEIQRFGGREVNTAGDGFVATFTSPSAAIACADDIVDAVAALGIEVRIGIHAGEVEVRDASHGTDVAGVAVHIGARVCALAGPSEVLVSSTVRDIVAGSRHRFAERGEQELKGVPGRWRLCVLMRDDATRTR”, the “soluble on expression in E. coli” value was “soluble”.

In the case of “MRGSHHHHHHGSIEGRMEKINYLLPEESAEMTLNQVKSLRQIEGRLRKLFSLKNYQEVMPPSFEYTQLYTALESNGKTFNQEKMFQFIKHEGQSITLRYDFTLPLVRLYSQIKDSTSARYSYFGKIFRKEKRHKGRSTENYQIGIELFGESADKSELEILSLALQVIEQLGLNKTVFEIGSAKFFQRLCQLADGSTELLTELLLKKDLSGLNAFIEKNNFSKELRGLLKEIFITNELSRLENLVTNTKDDVLISSFDQLKEFSEKLSMIKPIIIDLGMVPKMDYYTDLMFKAYSSAANQPILSGGRYDQLLSNFQEEAFAIGFCCHMDTILKALERQELEEDND”, the “soluble on expression in E. coli” value is given as “soluble”.

Turning to “MRGSHHHHHHMSIITDVYAREVLDSRGNPTLEVEVYTESGAFGRGMVPSGASTGEHEAVELRDGDKSRYGGLGTQKAVDNVNNIIAEAIIGYDVRDQQAIDRAMIALDGTPNKGKLGANAILGVSIAVARAAADYLEIPLYSYLGGFNTKVLPTPMMNIINGGSHSDAPIAFQEFMILPVGAPTFKEALRYGAEIFHALKKILKSRGLETAVGDEGGFAPRFEGTEDGVETILAAIEAAGYVPGKDVFLGFDCASSEFYDKERKVYDYTKFEGEGAAVRTSAEQIDYLEELVNKYPIITIEDGMDENDWDGWKALTERLGKKVQLVGDDFFVTNTDYLARGIQEGAANSILIKVNQIGTLTETFEAIEMAKEAGYTAVVSHRSGETEDSTIADIAVATNAGQIKTGSLSRTDRIAKYNQLLRIEDQLGEVAEYRGLKSFYNLKK”, the “soluble on expression in E. coli” value is given as “soluble”.

For the sequence “MRGSHHHHHHTDPALRACELLGMSANVPTDICFSFTGLVQRGGGTGPHKDGWGITFYEGKGCRTFKDPQPSFNSPIAKLVQDYPIKSCSVVAHIRQANRGEVALENTHPFTRELWGRNWTYAHNGQLTGYKSLETGNFRPVGETDSEKAFCWLLHKLTQRYPRTPGNMAAVFKYIASLADELRQKGVFNMLLSDGRYVMAYCSTNLHWITRRAPFGVATLLDQDVEIDFSSQTTPNDVVTVIATQPLTGNETWQKIMPGEWRLFCLGERVVGLCGR”, the “soluble on expression in E. coli” value was “soluble”.
